Results reported in patent US8592178B2, “Process for the preparation of testosterone” (F.I.S. Fabbrica Italiana Sintetici S.p.A., priority 2009, dated 2013).
Converted amounts (≈) assume the structure as drawn. “And” between values parts separate entries of the source, which are not always exact repeats. Identical values can stand only once.

Assays:
[1] = Solubility of 4-androstene-3,17-dione (saturated solution); assay type: physicochemical
Experimental: • 5 mg of 4-androstene-3,17-dione in • 5 mL of buffer solution (phosphate buffer 50 mM; pH 6.5). This was stirred at 40° C. for 15 minutes and the suspended matter was filtered thereby obtaining a saturated solution of 4-androstene-3,17-dione (conc. 50 μg/mL). Solution I (NAD Solution) • 10 mg of NAD in • 1 mL of buffer solution. A clear solution was obtained. Solution L ([…]) • 13 mg of GDH-103 (glucose dehydrogenase) in • 1 mL of buffer solution. A clear solution was obtained.
Advantageously, the enzyme of the present invention is capable of carrying out the catalysis also in water-organic solvent mixtures, such as methanol, ethanol, isopropanol in percentages as high as 50%. This mixtures allow increasing the substrate solubility, which is as low as about 50 μg/mL in water.

[2] = Stability study of the enzyme (activity as a function of time at room temperature); assay type: physicochemical; conditions: in the elution solution (SOLUTION G) at room temperature
Experimental: A study to verify the stability in water of the purified recombinant murine enzyme Type V 17β-hydroxysteroid dehydrogenase of the invention was carried out. […] It can be seen that the enzyme is sufficiently stable to allow industrial biocatalysis as it is still active even after 15 days (Half-life).

[3] = Activity test of the recombinant murine type V 17β-hydroxysteroid dehydrogenase enzyme (NADPH consumption at 340 nm); assay type: biochemical; conditions: for U/mg: each enzyme preparation; for U/mg / U/ml: preparation parameters (induction temp., time) differ per date of preparation; for U/ml: eluate of each enzyme preparation
Experimental: To estimate the specific enzymatic activity of the purified protein, a kinetic study was carried out by means of a spectrophotometer. The conversion of 4-androstene-3,17-dione into testosterone by means of the recombinant murine type V 17β-hydroxysteroid dehydrogenase enzyme involved the equimolar consumption of the NADPH cofactor, which acted as the reducing agent.
As the transformation of the 4-androstene-3,17-dione into testosterone is equimolar to the oxidation of NADPH, by quantifying the consumption of the latter over time as a function of the enzyme milligrams used, the activity units can be estimated, which are intended as substrate micromoles converted per minute per protein milligram (U/mg).
A fresh saturated NADPH solution in phosphate buffer 100 mM at about pH 7 (SOLUTION Q) and a fresh saturated solution of 4-androstene-3,17-dione in phosphate buffer 100 mM at pH 7 (SOLUTION P) were prepared. In a quartz 100 μl cuvette, 1 cm optical path, 96 μl SOLUTION P, 4 μl phosphate buffer 100 mM at pH 7 were added. The blank was measured at 340 nm. The absorbance values at 340 nm were detected every second. In a quartz 100 μl cuvette 96 μl SOLUTION P, 2 μl SOLUTION Q and finally, 2 μl protein elution quantified by Bradford assay were inserted. The solution was blended thoroughly, then the wavelength reading was started at 340 nm and the values thereof were recorded. In a plot, the absorbance values were inserted, which were obtained as a function of time and the curve was interpolated. The highest derivate value within the early seconds of measurement was thus defined.
With the values obtained, the plot illustrated in FIG. 5 was drawn, which allows to quantify the NADPH consumption rate at time zero (except the self-oxidation given by the control, consisting of the mixture without enzyme, which must be subtracted) and from the latter the enzyme activity units per protein milligram (U/mg). To calculate the units, the following Formula was used: Unit/mg=|derivate (s^−1)|*60 (sec/min)*1 (cm)/6220 (M^−1Cm^−1)*1000000 (M/M)*[…]/[(mg/mL sol enzyme*0.002 (mL))]=(μmol/min)/mg
A study to optimize the process for the preparation of the purified recombinant murine enzyme Type V 17β-hydroxysteroid dehydrogenase was carried out. […] It can be seen that the highest activity of the enzyme is reached performing the incubation (protein expression) at a temperature lower than 30° C., particularly preferred is the range between 20° C. and 30° C. The incubation temperature is a key parameter for the preparation of the enzyme.

| Molecule | U/mg [3] | U/ml [3] | other results |
| --- | --- | --- | --- |
| C[C@]12CCC(=O)C=C1CC[C@@H]1[C@@H]2CC[C@]2(C)C(=O)CC[C@@H]12 [4-androstene-3,17-dione] | – | – | solubility ([1]; in water): ~50 µg/mL (≈ 175 µM); concentration of saturated solution ([1]; phosphate buffer 50 mM pH 6.5, stirred at 40° C. for 15 minutes, filtered): 50 µg/mL |
| recombinant murine type V 17β-hydroxysteroid dehydrogenase enzyme: Purified recombinant murine type V 17β-hydroxysteroid dehydrogenase with N-terminal His-tag tail, SEQ ID n. 2, expressed in E. coli (protein, N-terminal His-tag; modified 17-beta-deidrogenase, 2, expressed in E. coli) MGSSHHHHHHSSGLVPRGSHMDSKQQTVRLSDGHFIPILGFGTYAPQEVPKSKATEATKIAIDAGFRHIDSASMYQNEKEVGLAIRSKIADGTVKREDIFYTSKVWCTFHRPELVRVCLEQSLKQLQLDYVDLYLIHFPMAMKPGENYLPKDENGKLIYDAVDICDTWEAMEKCKDAGLAKSIGVSNFNRRQLEKILKKPGLKYKPVCNQVECHPYLNQGKLLDFCRSKDIVLVAYSALGSHREKQWVDQSSPVLLDNPVLGSMAKKYNRTPALIALRYQLQRGVVVLAKSFSEKRIKENMQVFEFQLTSEDMKVLDDLNKNIRYISGSSFKDHPDFPFWDEY | – | – | half-life [2]: more than 15 days; specific enzymatic activity (substrate micromoles converted per minute per protein milligram) ([3]; two different preparations, NADPH cofactor, phosphate buffer 100 mM pH 7): 0.006 U/mg and 0.007 U/mg |
| 09/10/09: Preparation of the purified recombinant enzyme dated 09/10/09; induction 26 °C, 19 h (protein, UniProt P70694 1-323, looked up, N-terminal His-tag, Preparation of the purified recombinant enzyme dated 09/10/09; induction 26 °C, 19 h) Estradiol 17 …: MDSKQQTVRLSDGHFIPILGFGTYAPQEVPKSKATEATKIAIDAGFRHIDSASMYQNEKEVGLAIRSKIADGTVKREDIFYTSKVWCTFHRPELVRVCLEQSLKQLQLDYVDLYLIHFPMAMKPGENYLPKDENGKLIYDAVDICDTWEAMEKCKDAGLAKSIGVSNFNRRQLEKILKKPGLKYKPVCNQVECHPYLNQGKLLDFCRSKDIVLVAYSALGSHREKQWVDQSSPVLLDNPVLGSMAKKYNRTPALIALRYQLQRGVVVLAKSFSEKRIKENMQVFEFQLTSEDMKVLDDLNKNIRYISGSSFKDHPDFPFWDEY | 0.0133 U/mg | 0.65 U/ml | – |
| 26/09/08: Preparation of the purified recombinant enzyme dated 26/09/08; induction 37 °C, 18 h (protein, UniProt P70694 1-323, looked up, N-terminal His-tag, Preparation of the purified recombinant enzyme dated 26/09/08; induction 37 °C, 18 h) Estradiol 17 …: MDSKQQTVRLSDGHFIPILGFGTYAPQEVPKSKATEATKIAIDAGFRHIDSASMYQNEKEVGLAIRSKIADGTVKREDIFYTSKVWCTFHRPELVRVCLEQSLKQLQLDYVDLYLIHFPMAMKPGENYLPKDENGKLIYDAVDICDTWEAMEKCKDAGLAKSIGVSNFNRRQLEKILKKPGLKYKPVCNQVECHPYLNQGKLLDFCRSKDIVLVAYSALGSHREKQWVDQSSPVLLDNPVLGSMAKKYNRTPALIALRYQLQRGVVVLAKSFSEKRIKENMQVFEFQLTSEDMKVLDDLNKNIRYISGSSFKDHPDFPFWDEY | 0.00725 U/mg | 0.2247 U/ml | – |
| 25/03/09: Preparation of the purified recombinant enzyme dated 25/03/09; induction 37 °C, 15 h (protein, UniProt P70694 1-323, looked up, N-terminal His-tag, Preparation of the purified recombinant enzyme dated 25/03/09; induction 37 °C, 15 h) Estradiol 17 …: MDSKQQTVRLSDGHFIPILGFGTYAPQEVPKSKATEATKIAIDAGFRHIDSASMYQNEKEVGLAIRSKIADGTVKREDIFYTSKVWCTFHRPELVRVCLEQSLKQLQLDYVDLYLIHFPMAMKPGENYLPKDENGKLIYDAVDICDTWEAMEKCKDAGLAKSIGVSNFNRRQLEKILKKPGLKYKPVCNQVECHPYLNQGKLLDFCRSKDIVLVAYSALGSHREKQWVDQSSPVLLDNPVLGSMAKKYNRTPALIALRYQLQRGVVVLAKSFSEKRIKENMQVFEFQLTSEDMKVLDDLNKNIRYISGSSFKDHPDFPFWDEY | 0.0149 U/mg | 0.4955 U/ml | – |
| 22/04/09: Preparation of the purified recombinant enzyme dated 22/04/09; induction 37 °C, 21 h (protein, UniProt P70694 1-323, looked up, N-terminal His-tag, Preparation of the purified recombinant enzyme dated 22/04/09; induction 37 °C, 21 h) Estradiol 17 …: MDSKQQTVRLSDGHFIPILGFGTYAPQEVPKSKATEATKIAIDAGFRHIDSASMYQNEKEVGLAIRSKIADGTVKREDIFYTSKVWCTFHRPELVRVCLEQSLKQLQLDYVDLYLIHFPMAMKPGENYLPKDENGKLIYDAVDICDTWEAMEKCKDAGLAKSIGVSNFNRRQLEKILKKPGLKYKPVCNQVECHPYLNQGKLLDFCRSKDIVLVAYSALGSHREKQWVDQSSPVLLDNPVLGSMAKKYNRTPALIALRYQLQRGVVVLAKSFSEKRIKENMQVFEFQLTSEDMKVLDDLNKNIRYISGSSFKDHPDFPFWDEY | 0.0057 U/mg | 0.1470 U/ml | – |
| 13/06/09: Preparation of the purified recombinant enzyme dated 13/06/09; induction 39 °C, 20 h (protein, UniProt P70694 1-323, looked up, N-terminal His-tag, Preparation of the purified recombinant enzyme dated 13/06/09; induction 39 °C, 20 h) Estradiol 17 …: MDSKQQTVRLSDGHFIPILGFGTYAPQEVPKSKATEATKIAIDAGFRHIDSASMYQNEKEVGLAIRSKIADGTVKREDIFYTSKVWCTFHRPELVRVCLEQSLKQLQLDYVDLYLIHFPMAMKPGENYLPKDENGKLIYDAVDICDTWEAMEKCKDAGLAKSIGVSNFNRRQLEKILKKPGLKYKPVCNQVECHPYLNQGKLLDFCRSKDIVLVAYSALGSHREKQWVDQSSPVLLDNPVLGSMAKKYNRTPALIALRYQLQRGVVVLAKSFSEKRIKENMQVFEFQLTSEDMKVLDDLNKNIRYISGSSFKDHPDFPFWDEY | 0.00393 U/mg | 0.0566 U/ml | – |
| 02/07/09: Preparation of the purified recombinant enzyme dated 02/07/09; induction 28 °C, 24 h (protein, UniProt P70694 1-323, looked up, N-terminal His-tag, Preparation of the purified recombinant enzyme dated 02/07/09; induction 28 °C, 24 h) Estradiol 17 …: MDSKQQTVRLSDGHFIPILGFGTYAPQEVPKSKATEATKIAIDAGFRHIDSASMYQNEKEVGLAIRSKIADGTVKREDIFYTSKVWCTFHRPELVRVCLEQSLKQLQLDYVDLYLIHFPMAMKPGENYLPKDENGKLIYDAVDICDTWEAMEKCKDAGLAKSIGVSNFNRRQLEKILKKPGLKYKPVCNQVECHPYLNQGKLLDFCRSKDIVLVAYSALGSHREKQWVDQSSPVLLDNPVLGSMAKKYNRTPALIALRYQLQRGVVVLAKSFSEKRIKENMQVFEFQLTSEDMKVLDDLNKNIRYISGSSFKDHPDFPFWDEY | 0.027 U/mg | 0.29 U/ml | – |
